# In the Immune Epitope Database (IEDB):
# Assays:
# [1] = molecular target: HLA-A*02:01; experiment: IEDB peptide-MHC binding, purified MHC/competitive/fluorescence; filed as Kd, often an IC50 or EC50 that approximates it; ≥ and ≤ were set here for values at or beyond the usual limits of such assays
# [2] = molecular target: HLA-A*02:19; experiment: as above
# [3] = molecular target: HLA-A*03:01; experiment: as above; settings: source organism: Salmonella enterica subsp. enterica serovar Choleraesuis str. SC-B67
# [4] = molecular target: HLA-A*23:01; experiment: as above; settings: source organism: Salmonella enterica subsp. enterica serovar Choleraesuis str. SC-B67
# [5] = molecular target: HLA-A*24:03; experiment: as above
# [6] = molecular target: HLA-A*26:01; experiment: as above; settings: source organism: Salmonella enterica subsp. enterica serovar Choleraesuis str. SC-B67
# [7] = molecular target: HLA-A*29:02; experiment: as above; settings: source organism: Salmonella enterica subsp. enterica serovar Choleraesuis str. SC-B67
# [8] = molecular target: HLA-B*15:01; experiment: as above; settings: source organism: Salmonella enterica subsp. enterica serovar Choleraesuis str. SC-B67
# [9] = molecular target: HLA-B*15:17; experiment: as above; settings: source organism: Salmonella enterica subsp. enterica serovar Choleraesuis str. SC-B67
# [10] = molecular target: HLA-B*18:01; experiment: as above; settings: source organism: Salmonella enterica subsp. enterica serovar Choleraesuis str. SC-B67
# [11] = molecular target: HLA-B*27:03; experiment: as above; settings: source organism: Salmonella enterica subsp. enterica serovar Choleraesuis str. SC-B67
# [12] = molecular target: HLA-B*39:01; experiment: as above; settings: source organism: Salmonella enterica subsp. enterica serovar Choleraesuis str. SC-B67
# [13] = molecular target: HLA-B*46:01; experiment: as above; settings: source organism: Salmonella enterica subsp. enterica serovar Choleraesuis str. SC-B67
# [14] = molecular target: HLA-B*57:01; experiment: as above; settings: source organism: Salmonella enterica subsp. enterica serovar Choleraesuis str. SC-B67
# [15] = molecular target: HLA-A*01:01; experiment: IEDB peptide-MHC binding, purified MHC/direct/fluorescence; filed as Kd, often an IC50 or EC50 that approximates it; ≥ and ≤ were set here for values at or beyond the usual limits of such assays
# [16] = molecular target: HLA-A*02:01; experiment: as above
# [17] = molecular target: HLA-A*03:01; experiment: as above
# [18] = molecular target: HLA-A*11:01; experiment: as above
# [19] = molecular target: HLA-A*26:01; experiment: as above
# [20] = molecular target: HLA-A*31:01; experiment: as above
# [21] = molecular target: HLA-A*69:01; experiment: as above
# [22] = molecular target: HLA-B*07:02; experiment: as above
# [23] = molecular target: HLA-B*08:01; experiment: as above
# [24] = molecular target: HLA-B*15:01; experiment: as above
# [25] = molecular target: HLA-B*15:17; experiment: as above
# [26] = molecular target: HLA-B*27:05; experiment: as above
# [27] = molecular target: HLA-B*35:01; experiment: as above
# [28] = molecular target: HLA-B*40:01; experiment: as above
# [29] = molecular target: HLA-B*57:01; experiment: as above
# [30] = molecular target: HLA-B*58:01; experiment: as above
# [31] = molecular target: HLA-C*05:01; experiment: as above
# [32] = molecular target: HLA-A*24:03; experiment: as above
# [33] = molecular target: HLA-A*30:01; experiment: as above; settings: source organism: Salmonella enterica subsp. enterica serovar Typhi
# [34] = molecular target: HLA-B*44:02; experiment: as above
# [35] = molecular target: HLA-B*48:01; experiment: as above; settings: source organism: West Nile virus
# [36] = molecular target: HLA-C*06:02; experiment: as above
# [37] = molecular target: HLA-C*12:03; experiment: as above
# [38] = molecular target: HLA-B*15:42; experiment: IEDB peptide-MHC binding, purified MHC/competitive/fluorescence; filed as Kd, often an IC50 or EC50 that approximates it; ≥ and ≤ were set here for values at or beyond the usual limits of such assays; settings: source organism: Burkholderia mallei SAVP1
# [39] = molecular target: HLA-B*45:06; experiment: as above; settings: source organism: Burkholderia mallei SAVP1
# [40] = molecular target: HLA-B*83:01; experiment: as above; settings: source organism: Burkholderia mallei SAVP1
# [41] = molecular target: HLA-A*02:12; experiment: as above; settings: source organism: Burkholderia pseudomallei 668
# [42] = source organism: Salmonella enterica subsp. enterica serovar Choleraesuis str. SC-B67
# [43] = source organism: Rickettsia felis
# [44] = source organism: Rickettsia prowazekii
# [45] = source organism: Salmonella enterica
# [46] = source organism: Salmonella enterica subsp. enterica serovar Typhi
# [47] = source organism: Vibrio parahaemolyticus
# [48] = source organism: Brucella abortus 2308
# [49] = source organism: Brucella melitensis
# [50] = source organism: Acinetobacter baylyi
# [51] = source organism: Burkholderia thailandensis
sequence,measurement,setting,value
GIALAVPCV,Kd,[1]; [42],0.0007 µM
same,Kd,[2]; [42],0.0018 µM
same,Kd,[3],≥ 20 µM
same,Kd,[4],≥ 20 µM
same,Kd,[5]; [42],≥ 20 µM
same,Kd,[6],≥ 20 µM
same,Kd,[7],3 µM
same,Kd,[8],≥ 20 µM
same,Kd,[9],≥ 20 µM
same,Kd,[10],≥ 20 µM
same,Kd,[11],≥ 20 µM
same,Kd,[12],≥ 20 µM
same,Kd,[13],≥ 20 µM
same,Kd,[14],≥ 20 µM
GSFKEYVFW,Kd,[15]; [43],≥ 20 µM
same,Kd,[16]; [43],≥ 20 µM
same,Kd,[17]; [43],≥ 20 µM
same,Kd,[18]; [43],≥ 20 µM
same,Kd,[19]; [43],≥ 20 µM
same,Kd,[20]; [43],≥ 20 µM
same,Kd,[21]; [43],≥ 20 µM
same,Kd,[22]; [43],≥ 20 µM
same,Kd,[23]; [43],≥ 20 µM
same,Kd,[24]; [44],5.69 µM
same,Kd,[25]; [43],0.105 µM
same,Kd,[26]; [43],≥ 20 µM
same,Kd,[27]; [44],1.9 µM
same,Kd,[28]; [43],≥ 20 µM
same,Kd,[29]; [43],0.167 µM
same,Kd,[30]; [44],0.00781 µM
VADEIAFGL,Kd,[31]; source organism: Escherichia coli E22,≤ 0.001 µM
EHFYWGSVF,Kd,[15]; [45],≥ 20 µM
same,Kd,[16]; [45],≥ 20 µM
same,Kd,[17]; [45],≥ 20 µM
same,Kd,[18]; [46],7.98 µM
same,Kd,[32]; [46],0.318 µM
same,Kd,[19]; [45],≥ 20 µM
same,Kd,[33],19.2 µM
same,Kd,[20]; [45],≥ 20 µM
same,Kd,[21]; [45],≥ 20 µM
same,Kd,[23]; [45],≥ 20 µM
same,Kd,[24]; [46],1.89 µM
same,Kd,[26]; [45],≥ 20 µM
same,Kd,[27]; [46],0.427 µM
same,Kd,[28]; [45],≥ 20 µM
same,Kd,[30]; [45],≥ 20 µM
YREAGIPVL,Kd,[15]; [47],≥ 20 µM
same,Kd,[16]; [47],≥ 20 µM
same,Kd,[17]; [47],≥ 20 µM
same,Kd,[18]; [47],≥ 20 µM
same,Kd,[19]; [47],≥ 20 µM
same,Kd,[20]; [47],≥ 20 µM
same,Kd,[21]; [47],≥ 20 µM
same,Kd,[22]; [47],≥ 20 µM
same,Kd,[23]; [47],≥ 20 µM
same,Kd,[24]; [47],≥ 20 µM
same,Kd,[26]; [47],0.654 µM
same,Kd,[27]; [47],1 µM
same,Kd,[28]; [47],≥ 20 µM
same,Kd,[34]; [47],≥ 20 µM
same,Kd,[30]; [47],≥ 20 µM
TPPVDRMAV,Kd,[15]; [48],≥ 20 µM
same,Kd,[16]; [48],≥ 20 µM
same,Kd,[17]; [48],≥ 20 µM
same,Kd,[18]; [48],≥ 20 µM
same,Kd,[32]; [48],≥ 20 µM
same,Kd,[19]; [48],≥ 20 µM
same,Kd,[20]; [48],≥ 20 µM
same,Kd,[21]; [48],≥ 20 µM
same,Kd,[22]; [49],0.288 µM
same,Kd,[23]; [49],9.04 µM
same,Kd,[26]; [48],≥ 20 µM
same,Kd,[27]; [49],1.07 µM
same,Kd,[28]; [48],≥ 20 µM
same,Kd,[34]; [48],≥ 20 µM
same,Kd,[30]; [48],≥ 20 µM
MTIGMANLI,Kd,[31]; source organism: Influenza A virus (A/California/04/2009(H1N1)),≥ 20 µM
DLMLLSYSL,Kd,[1]; [50],0.16 µM
same,Kd,[2]; [50],0.0141 µM
RRSRRSLTV,Kd,[35],≥ 20 µM
same,Kd,[36]; source organism: West Nile virus,0.036 µM
VSFICTTIL,Kd,[37]; source organism: Murid gammaherpesvirus 4,0.485 µM
MALATGLWW,Kd,[25]; [51],0.0004 µM
same,Kd,[29]; source organism: Burkholderia mallei ATCC 23344,0.033 µM
same,Kd,[30]; [51],0.0005 µM
same,Kd,[38],≥ 5 µM
same,Kd,[39],≥ 5 µM
same,Kd,[40],≥ 5 µM
YYVMGGAFL,Kd,[5]; source organism: Bacillus anthracis str. A0488,0.0003 µM
IRHNKDRKV,Kd,[36]; source organism: Mus musculus,0.026 µM
GIYGAVIPL,Kd,[1]; source organism: Burkholderia pseudomallei 668,≤ 0.0001 µM
same,Kd,[41],0.0086 µM
FTRDTGATL,Kd,[37]; source organism: Mycobacterium tuberculosis variant bovis BCG str. Pasteur 1173P2,≤ 0.001 µM
